Source: IntAct's records for PubMed 21516122

B1: Histone-lysine N-methyltransferase PRDM16 (Homo sapiens), Q9HAZ2-4 (parent)
chain: MCQISEQIYYKVIKDIEPGEELLVHVKEGVYPLGTVPPGLDEEPTFRCDECDELFQSKLDLRRHKKYTCGSVGAALYEGLAEELKPEGLGGGSGQAHECKDCERMFPNKYSLEQHMVIHTEEREYKCDQCPKAFNWKSNLIRHQMSHDSGKRFECENCVKVFTDPSNLQRHIRSQHVGARAHACPDCGKTFATSSGLKQHKHIHSTVKPFICEVCHKSYTQFSNLCRHKRMHADCRTQIKCKDCGQMFSTTSSLNKHRRFCEGKNHYTPGGIFAPGLPLTPSPMMDKAKPSPSLNHASLGFNEYFPSRPHPGSLPFSTAPPTFPALTPGFPGIFPPSLYPRPPLLPPTSLLKSPLNHTQDAKLPSPLGNPALPLVSAVSNSSQGTTAAAGPEEKFESRLEDSCVEKLKTRSSDMSDGSDFEDVNTTTGTDLDTTTGTGSDLDSDVDSDPDKDKGKGKSAEGQPKFGGGLAPPGAPNSVAEVPVFYSQHSFFPPPDEQLLTATGAAGDSIKAIASIAEKYFGPGFMGMQEKKLGSLPYHSAFPFQFLPNFPHSLYPFTDRALAHNLLVKAEPKSPRDALKVGGPSAECPFDLTTKPKDVKPILPMPKGPSAPASGEEQPLDLSIGSRARASQNGGGREPRKNHVYGERKLGAGEGLPQVCPARMPQQPPLHYAKPSPFFMDPIYSRVEKRKVTDPVGALKEKYLRPSPLLFHPQMSAIETMTEKLESFAAMKADSGSSLQPLPHHPFNFRSPPPTLSDPILRKGKERYTCRYCGKIFPRSANLTRHLRTHTGEQPYRCKYCDRSFSISSNLQRHVRNIHNKEKPFKCHLCNRCFGQQTNLDRHLKKHEHENAPVSQHPGVLTNHLGTSASSPTSESDNHALLDEKEDSYFSEIRNFIANSEMNQASTRTEKRADMQIVDGSAQCPGLASEKQEDVEEEDDDDLEEDDEDSLAGKSQDDTVSPAPEPQAAYEDEEDEEPAASLAVGFDHTRRCAEDHEGGLLALEPMPTFGKGLDLRRAAEEAFEVKDVLNSTLDSEALKHTLCRQAKNQAYAMMLSLSEDTPLHTPSQGSLDAWLKVTGATSESGAFHPINHL

Columns and labels:
[1] = variants of: B1; conditions: with ctbp2_mouse Ctbp2, P56546
Sequence of ctbp2_mouse Ctbp2, P56546 (P56546 whole entry): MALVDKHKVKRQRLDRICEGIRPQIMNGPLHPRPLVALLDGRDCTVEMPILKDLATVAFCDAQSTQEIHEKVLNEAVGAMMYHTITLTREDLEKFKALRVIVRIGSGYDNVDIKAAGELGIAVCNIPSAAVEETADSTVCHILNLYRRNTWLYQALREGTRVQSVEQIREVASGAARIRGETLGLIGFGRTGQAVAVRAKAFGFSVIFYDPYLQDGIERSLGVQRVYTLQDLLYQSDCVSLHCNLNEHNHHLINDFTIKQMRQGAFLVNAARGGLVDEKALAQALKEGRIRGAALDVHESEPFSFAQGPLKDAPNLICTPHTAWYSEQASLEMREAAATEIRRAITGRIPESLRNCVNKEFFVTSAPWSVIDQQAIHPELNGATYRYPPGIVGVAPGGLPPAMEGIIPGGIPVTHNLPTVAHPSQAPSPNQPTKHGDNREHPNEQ

[2] = variants of: B1; conditions: with ctbp2_mouse Ctbp2, P56546; remark: listed apart in the source
[3] = variants of: B1; conditions: with hdac2_chick HDAC2, P56519
Sequence of hdac2_chick HDAC2, P56519 (P56519 whole entry): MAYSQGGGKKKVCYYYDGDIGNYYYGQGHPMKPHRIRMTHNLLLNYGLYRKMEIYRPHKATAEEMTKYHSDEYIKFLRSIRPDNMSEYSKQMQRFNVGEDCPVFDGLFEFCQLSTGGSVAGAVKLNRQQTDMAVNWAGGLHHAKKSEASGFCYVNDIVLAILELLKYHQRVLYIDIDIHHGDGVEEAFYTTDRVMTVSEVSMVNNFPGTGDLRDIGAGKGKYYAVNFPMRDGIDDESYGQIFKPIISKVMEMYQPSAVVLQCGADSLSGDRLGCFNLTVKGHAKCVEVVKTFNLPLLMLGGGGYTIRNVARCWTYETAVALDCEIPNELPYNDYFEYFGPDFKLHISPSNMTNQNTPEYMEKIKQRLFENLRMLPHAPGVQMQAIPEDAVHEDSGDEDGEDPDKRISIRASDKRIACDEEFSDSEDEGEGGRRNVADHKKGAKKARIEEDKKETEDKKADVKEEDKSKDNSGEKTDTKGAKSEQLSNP

Variant | effect of a mutation on the interaction [1] | effect of a mutation on the interaction [2] | effect of a mutation on the interaction [3]
D590A;L591S;D620A;L621S | disrupting interaction | disrupting interaction | decreasing interaction
K568R |  |  | decreasing interaction
K568R;D590A;L591S;L619S;D620A |  |  | decreasing interaction
